Source: IntAct's records for PubMed 20133777

B1: Receptor-type tyrosine-protein phosphatase T (Homo sapiens), O14522-1 (parent)
chain: MASLAALALSLLLRLQLPPLPGARAQSAAGGCSFDEHYSNCGYSVALGTNGFTWEQINTWEKPMLDQAVPTGSFMMVNSSGRASGQKAHLLLPTLKENDTHCIDFHYYFSSRDRSSPGALNVYVKVNGGPQGNPVWNVSGVVTEGWVKAELAISTFWPHFYQVIFESVSLKGHPGYIAVDEVRVLAHPCRKAPHFLRLQNVEVNVGQNATFQCIAGGKWSQHDKLWLQQWNGRDTALMVTRVVNHRRFSATVSVADTAQRSVSKYRCVIRSDGGSGVSNYAELIVKEPPTPIAPPELLAVGATYLWIKPNANSIIGDGPIILKEVEYRTTTGTWAETHIVDSPNYKLWHLDPDVEYEIRVLLTRPGEGGTGPPGPPLTTRTKCADPVHGPQNVEIVDIRARQLTLQWEPFGYAVTRCHSYNLTVQYQYVFNQQQYEAEEVIQTSSHYTLRGLRPFMTIRLRLLLSNPEGRMESEELVVQTEEDVPGAVPLESIQGGPFEEKIYIQWKPPNETNGVITLYEINYKAVGSLDPSADLSSQRGKVFKLRNETHHLFVGLYPGTTYSFTIKASTAKGFGPPVTTRIATKISAPSMPEYDTDTPLNETDTTITVMLKPAQSRGAPVSVYQLVVKEERLQKSRRAADIIECFSVPVSYRNASSLDSLHYFAAELKPANLPVTQPFTVGDNKTYNGYWNPPLSPLKSYSIYFQALSKANGETKINCVRLATKAPMGSAQVTPGTPLCLLTTGASTQNSNTVEPEKQVDNTVKMAGVIAGLLMFIIILLGVMLTIKRRRNAYSYSYYLSQRKLAKKQKETQSGAQREMGPVASADKPTTKLSASRNDEGFSSSSQDVNGFTDGSRGELSQPTLTIQTHPYRTCDPVEMSYPRDQFQPAIRVADLLQHITQMKRGQGYGFKEEYEALPEGQTASWDTAKEDENRNKNRYGNIISYDHSRVRLLVLDGDPHSDYINANYIDGYHRPRHYIATQGPMQETVKDFWRMIWQENSASIVMVTNLVEVGRVKCVRYWPDDTEVYGDIKVTLIETEPLAEYVIRTFTVQKKGYHEIRELRLFHFTSWPDHGVPCYATGLLGFVRQVKFLNPPEAGPIVVHCSAGAGRTGCFIAIDTMLDMAENEGVVDIFNCVRELRAQRVNLVQTEEQYVFVHDAILEACLCGNTAIPVCEFRSLYYNISRLDPQTNSSQIKDEFQTLNIVTPRVRPEDCSIGLLPRNHDKNRSMDVLPLDRCLPFLISVDGESSNYINAALMDSHKQPAAFVVTQHPLPNTVADFWRLVFDYNCSSVVMLNEMDTAQFCMQYWPEKTSGCYGPIQVEFVSADIDEDIIHRIFRICNMARPQDGYRIVQHLQYIGWPAYRDTPPSKRSLLKVVRRLEKWQEQYDGREGRTVVHCLNGGGRSGTFCAICSVCEMIQQQNIIDVFHIVKTLRNNKSNMVETLEQYKFVYEVALEYLSSF

Variants of: B1
Conditions: with paxi_human PXN

| Variant | effect of a mutation on the interaction |
| --- | --- |
| D1074A | increasing interaction |
| D1074A;C1106S | increasing interaction |
